B1: bsAb025 (bispecific antibody)
heavy: QVQLVQSGVEVKKPGASVKVSCKASGYTFTNYYMYWVRQAPGQGLEWMGGINPSNGGTNFNEKFKNRVTLTTDSSTTTAYMELKSLQFDDTAVYYCARRDYRFDMGFDYWGQGTTVTVSSASTKGPSVFPLAPSSKSTSGGTAALGCLVKDYFPEPVTVSWNSGALTSGVHTFPAVLQSSGLYSLSSVVTVPSSSLGTQTYICNVNHKPSNTKVDKKVEPKSCDKTHTGGSSGSGSGSTGTSSSGTGTSAGTTGTSASTSGSGSGGGGGSGGGGSAGGEIVLTQSPATLSLSPGERATLSCRASKGVSTSGYSYLHWYQQKPGQAPRLLIYLASYLESGVPARFSGSGSGTDFTLTISSLEPEDFAVYYCQHSRDLPLTFGGGTKVEIKRTVAAPSVFIFPPSDEQLKSGTASVVCLLNNFYPREAKVQWKVDNALQSGNSQESVTEQDSKDSTYSLSSTLTLSKADYEKHKVYACEVTHQGLSSPVTKSFNRGECGGGGSGGGGSGGGGSGGGGSQVQLVQSGAEVKKPGASVKLSCKASGYIFTRYYMYWVKQRPGQGLEWIGEINPNNGGTKFNEKFKNRATLTVDKSISTAYMELSRLRSDDTAVYYCSREDDYDGTPFAMDYWGQGTLVTVSSASTKGPSVFPLAPSSKSTSGGTAALGCLVKDYFPEPVTVSWNSGALTSGVHTFPAVLQSSGLYSLSSVVTVPSSSLGTQTYICNVNHKPSNTKVDKRVEPKSCDKTHTCPPCPAPEFEGGPSVFLFPPKPKDTLMISRTPEVTCVVVDVSHEDPEVKFNWYVDGVEVHNAKTKPREEQYNSTYRVVSVLTVLHQDWLNGKEYKCKVSNKALPASIEKTISKAKGQPREPQVYTLPPSREEMTKNQVSLTCLVKGFYPSDIAVEWESNGQPENNYKTTPPVLDSDGSFFLYSKLTVDKSRWQQGNVFSCSVMHEALHNHYTQKSLSLSPG
light: not shown
B2: bsAb018 (bispecific antibody)
heavy: EIVLTQSPATLSLSPGERATLSCRASKGVSTSGYSYLHWYQQKPGQAPRLLIYLASYLESGVPARFSGSGSGTDFTLTISSLEPEDFAVYYCQHSRDLPLTFGGGTKVEIKGGGGSGGGGSGGGGSGGGGSQVQLVQSGVEVKKPGASVKVSCKASGYTFTNYYMYWVRQAPGQGLEWMGGINPSNGGTNFNEKFKNRVTLTTDSSTTTAYMELKSLQFDDTAVYYCARRDYRFDMGFDYWGQGTTVTVSSGGGGSGGGGSGGGGSGGGGSQVQLVQSGAEVKKPGASVKLSCKASGYIFTRYYMYWVKQRPGQGLEWIGEINPNNGGTKFNEKFKNRATLTVDKSISTAYMELSRLRSDDTAVYYCSREDDYDGTPFAMDYWGQGTLVTVSSASTKGPSVFPLAPSSKSTSGGTAALGCLVKDYFPEPVTVSWNSGALTSGVHTFPAVLQSSGLYSLSSVVTVPSSSLGTQTYICNVNHKPSNTKVDKRVEPKSCDKTHTCPPCPAPEFEGGPSVFLFPPKPKDTLMISRTPEVTCVVVDVSHEDPEVKFNWYVDGVEVHNAKTKPREEQYNSTYRVVSVLTVLHQDWLNGKEYKCKVSNKALPASIEKTISKAKGQPREPQVYTLPPSREEMTKNQVSLTCLVKGFYPSDIAVEWESNGQPENNYKTTPPVLDSDGSFFLYSKLTVDKSRWQQGNVFSCSVMHEALHNHYTQKSLSLSPG
light: not shown
B3: bsAb022 (bispecific antibody)
heavy: QVQLVQSGVEVKKPGASVKVSCKASGYTFTNYYMYWVRQAPGQGLEWMGGINPSNGGTNFNEKFKNRVTLTTDSSTTTAYMELKSLQFDDTAVYYCARRDYRFDMGFDYWGQGTTVTVSSGGGGSGGGGSGGGGSGGGGSEIVLTQSPATLSLSPGERATLSCRASKGVSTSGYSYLHWYQQKPGQAPRLLIYLASYLESGVPARFSGSGSGTDFTLTISSLEPEDFAVYYCQHSRDLPLTFGGGTKVEIKGGGGSGGGGSGGGGSGGGGSQVQLVQSGAEVKKPGASVKLSCKASGYIFTRYYMYWVKQRPGQGLEWIGEINPNNGGTKFNEKFKNRATLTVDKSISTAYMELSRLRSDDTAVYYCSREDDYDGTPFAMDYWGQGTLVTVSSASTKGPSVFPLAPSSKSTSGGTAALGCLVKDYFPEPVTVSWNSGALTSGVHTFPAVLQSSGLYSLSSVVTVPSSSLGTQTYICNVNHKPSNTKVDKRVEPKSCDKTHTCPPCPAPEFEGGPSVFLFPPKPKDTLMISRTPEVTCVVVDVSHEDPEVKFNWYVDGVEVHNAKTKPREEQYNSTYRVVSVLTVLHQDWLNGKEYKCKVSNKALPASIEKTISKAKGQPREPQVYTLPPSREEMTKNQVSLTCLVKGFYPSDIAVEWESNGQPENNYKTTPPVLDSDGSFFLYSKLTVDKSRWQQGNVFSCSVMHEALHNHYTQKSLSLSPG
light: not shown
B4: bsAb033 (bispecific antibody, not shown: small tags and cut ends)
heavy (part 1 of 2): QVQLVQSGAEVKKPGASVKLSCKASGYIFTRYYMYWVKQRPGQGLEWIGEINPNNGGTKFNEKFKNRATLTVDKSISTAYMELSRLRSDDTAVYYCSREDDYDGTPFAMDYWGQGTLVTVSS
heavy (part 2 of 2): GGGGSGGGGSGGGGSGGGGSQVQLVQSGVEVKKPGASVKVSCKASGYTFTNYYMYWVRQAPGQGLEWMGGINPSNGGTNFNEKFKNRVTLTTDSSTTTAYMELKSLQFDDTAVYYCARRDYRFDMGFDYWGQGTTVTVSSGGGGSGGGGSGGGGSGGGGSEIVLTQSPATLSLSPGERATLSCRASKGVSTSGYSYLHWYQQKPGQAPRLLIYLASYLESGVPARFSGSGSGTDFTLTISSLEPEDFAVYYCQHSRDLPLTFGGGTKVEIK
heavy: B4 heavy (part 1 of 2)
light: not shown
B5: bsAb026 (bispecific antibody)
heavy: QVQLVQSGAEVKKPGASVKLSCKASGYIFTRYYMYWVKQRPGQGLEWIGEINPNNGGTKFNEKFKNRATLTVDKSISTAYMELSRLRSDDTAVYYCSREDDYDGTPFAMDYWGQGTLVTVSSASTKGPSVFPLAPSSKSTSGGTAALGCLVKDYFPEPVTVSWNSGALTSGVHTFPAVLQSSGLYSLSSVVTVPSSSLGTQTYICNVNHKPSNTKVDKRVEPKSCDKTHTCPPCPAPEFEGGPSVFLFPPKPKDTLMISRTPEVTCVVVDVSHEDPEVKFNWYVDGVEVHNAKTKPREEQYNSTYRVVSVLTVLHQDWLNGKEYKCKVSNKALPASIEKTISKAKGQPREPQVYTLPPSREEMTKNQVSLTCLVKGFYPSDIAVEWESNGQPENNYKTTPPVLDSDGSFFLYSKLTVDKSRWQQGNVFSCSVMHEALHNHYTQKSLSLSPGGGGGSGGGGSGGGGSGGGGSQVQLVQSGVEVKKPGASVKVSCKASGYTFTNYYMYWVRQAPGQGLEWMGGINPSNGGTNFNEKFKNRVTLTTDSSTTTAYMELKSLQFDDTAVYYCARRDYRFDMGFDYWGQGTTVTVSSASTKGPSVFPLAPSSKSTSGGTAALGCLVKDYFPEPVTVSWNSGALTSGVHTFPAVLQSSGLYSLSSVVTVPSSSLGTQTYICNVNHKPSNTKVDKKVEPKSCDKTHTGGSSGSGSGSTGTSSSGTGTSAGTTGTSASTSGSGSGGGGGSGGGGSAGGEIVLTQSPATLSLSPGERATLSCRASKGVSTSGYSYLHWYQQKPGQAPRLLIYLASYLESGVPARFSGSGSGTDFTLTISSLEPEDFAVYYCQHSRDLPLTFGGGTKVEIKRTVAAPSVFIFPPSDEQLKSGTASVVCLLNNFYPREAKVQWKVDNALQSGNSQESVTEQDSKDSTYSLSSTLTLSKADYEKHKVYACEVTHQGLSSPVTKSFNRGEC
light: not shown

Each binder was assayed against BTN3A expressed at the cell surface (human), O00481 (assay: cell-based or functional assay).
BTN3A expressed at the cell surface (human), O00481, sequence (O00481 30-513): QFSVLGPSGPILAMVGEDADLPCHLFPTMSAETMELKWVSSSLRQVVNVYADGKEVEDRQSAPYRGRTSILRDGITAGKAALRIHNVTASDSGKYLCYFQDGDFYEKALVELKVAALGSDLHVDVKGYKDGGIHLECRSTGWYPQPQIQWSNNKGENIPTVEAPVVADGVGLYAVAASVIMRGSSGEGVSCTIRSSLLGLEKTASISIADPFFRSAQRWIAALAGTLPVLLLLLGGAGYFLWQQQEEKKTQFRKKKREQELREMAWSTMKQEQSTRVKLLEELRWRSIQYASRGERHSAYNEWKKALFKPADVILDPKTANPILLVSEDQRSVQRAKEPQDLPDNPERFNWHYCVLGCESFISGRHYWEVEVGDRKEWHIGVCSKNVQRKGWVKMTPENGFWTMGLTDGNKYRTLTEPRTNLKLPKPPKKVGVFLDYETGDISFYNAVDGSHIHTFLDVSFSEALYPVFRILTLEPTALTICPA
B1 gave a Jurkat-Vy9Vo2 TCR MOP activation at 0.5 nM (fold-change to medium) of 1 and a Jurkat-Vy9Vo2 TCR MOP activation at 5 nM (fold-change to medium) of 1.2.
B2 showed a Jurkat-Vy9Vo2 TCR MOP activation at 0.5 nM (fold-change to medium) of 1.1 and a Jurkat-Vy9Vo2 TCR MOP activation at 5 nM (fold-change to medium) of 1.7.
B3 showed a Jurkat-Vy9Vo2 TCR MOP activation at 0.5 nM (fold-change to medium) of 1.3 and a Jurkat-Vy9Vo2 TCR MOP activation at 5 nM (fold-change to medium) of 1.4.
B4 was tested, and the Jurkat-Vy9Vo2 TCR MOP activation at 0.5 nM (fold-change to medium) was 7.8 and the Jurkat-Vy9Vo2 TCR MOP activation at 5 nM (fold-change to medium) was 7.1.
B5 was tested, and the Jurkat-Vy9Vo2 TCR MOP activation at 0.5 nM (fold-change to medium) was 2.9 and the Jurkat-Vy9Vo2 TCR MOP activation at 5 nM (fold-change to medium) was 1.4.

From patent publication US20260265379A1
